B1: RXRb: Retinoic X Receptor β (NR2B2), cDNA driver (protein, UniProt P28702 1-533, looked up)
Retinoic acid receptor …: MSWAARPPFLPQRHAAGQCGPVGVRKEMHCGVASRWRRRRPWLDPAAAAAAAVAGGEQQTPEPEPGEAGRDGMGDSGRDSRSPDSSSPNPLPQGVPPPSPPGPPLPPSTAPSLGGSGAPPPPPMPPPPLGSPFPVISSSMGSPGLPPPAPPGFSGPVSSPQINSTVSLPGGGSGPPEDVKPPVLGVRGLHCPPPPGGPGAGKRLCAICGDRSSGKHYGVYSCEGCKGFFKRTIRKDLTYSCRDNKDCTVDKRQRNRCQYCRYQKCLATGMKREAVQEERQRGKDKDGDGEGAGGAPEEMPVDRILEAELAVEQKSDQGVEGPGGTGGSGSSPNDPVTNICQAADKQLFTLVEWAKRIPHFSSLPLDDQVILLRAGWNELLIASFSHRSIDVRDGILLATGLHVHRNSAHSAGVGAIFDRVLTELVSKMRDMRMDKTELGCLRAIILFNPDAKGLSNPSEVEVLREKVYASLETYCKQKYPEQQGRFAKLLLRLPALRSIGLKCLEHLFFFKLIGDTPIDTFLMEMLEAPHQLA
B2: CAR: Constitutive Androstane Receptor (NR1I3), cDNA driver (protein, UniProt Q14994 1-352, looked up)
Nuclear receptor subfamily 1 …: MASREDELRNCVVCGDQATGYHFNALTCEGCKGFFRRTVSKSIGPTCPFAGSCEVSKTQRRHCPACRLQKCLDAGMRKDMILSAEALALRRAKQAQRRAQQTPVQLSKEQEELIRTLLGAHTRHMGTMFEQFVQFRPPAHLFIHHQPLPTLAPVLPLVTHFADINTFMVLQVIKFTKDLPVFRSLPIEDQISLLKGAAVEICHIVLNTTFCLQTQNFLCGPLRYTIEDGARVSPTVGFQVEFLELLFHFHGTLRKLQLQEPEYVLLAAMALFSPDRPGVTQRDEIDQLQEEMALTLQSYIKGQQRRPRDRFLYAKLLGLLAELRSINEAYGYQIQHIQGLSAMMPLLQEICS
B3: RXRg: Retinoic X Receptor γ (NR2B3), cDNA driver (protein, UniProt P48443 1-463, looked up)
Retinoic acid receptor …: MYGNYSHFMKFPAGYGGSPGHTGSTSMSPSAALSTGKPMDSHPSYTDTPVSAPRTLSAVGTPLNALGSPYRVITSAMGPPSGALAAPPGINLVAPPSSQLNVVNSVSSSEDIKPLPGLPGIGNMNYPSTSPGSLVKHICAICGDRSSGKHYGVYSCEGCKGFFKRTIRKDLIYTCRDNKDCLIDKRQRNRCQYCRYQKCLVMGMKREAVQEERQRSRERAESEAECATSGHEDMPVERILEAELAVEPKTESYGDMNMENSTNDPVTNICHAADKQLFTLVEWAKRIPHFSDLTLEDQVILLRAGWNELLIASFSHRSVSVQDGILLATGLHVHRSSAHSAGVGSIFDRVLTELVSKMKDMQMDKSELGCLRAIVLFNPDAKGLSNPSEVETLREKVYATLEAYTKQKYPEQPGRFAKLLLRLPALRSIGLKCLEHLFFFKLIGDTPIDTFLMEMLETPLQIT
B4: PXR: Pregnane X Receptor (NR1I2), cDNA driver (protein, UniProt O75469 1-434, looked up)
Nuclear receptor subfamily 1 …: MEVRPKESWNHADFVHCEDTESVPGKPSVNADEEVGGPQICRVCGDKATGYHFNVMTCEGCKGFFRRAMKRNARLRCPFRKGACEITRKTRRQCQACRLRKCLESGMKKEMIMSDEAVEERRALIKRKKSERTGTQPLGVQGLTEEQRMMIRELMDAQMKTFDTTFSHFKNFRLPGVLSSGCELPESLQAPSREEAAKWSQVRKDLCSLKVSLQLRGEDGSVWNYKPPADSGGKEIFSLLPHMADMSTYMFKGIISFAKVISYFRDLPIEDQISLLKGAAFELCQLRFNTVFNAETGTWECGRLSYCLEDTAGGFQQLLLEPMLKFHYMLKKLQLHEEEYVLMQAISLFSPDRPGVLQHRVVDQLQEQFAITLKSYIECNRPQPAHRFLFLKIMAMLTELRSINAQHTQRLLRIQDIHPFATPLMQELFGITGS
B5: RORb: RAR-related Orphan Receptor β (NR1F2), cDNA driver (protein, UniProt Q92753 1-470, looked up)
Nuclear receptor ROR-beta: MCENQLKTKADATAQIEVIPCKICGDKSSGIHYGVITCEGCKGFFRRSQQNNASYSCPRQRNCLIDRTNRNRCQHCRLQKCLALGMSRDAVKFGRMSKKQRDSLYAEVQKHQQRLQEQRQQQSGEAEALARVYSSSISNGLSNLNNETSGTYANGHVIDLPKSEGYYNVDSGQPSPDQSGLDMTGIKQIKQEPIYDLTSVPNLFTYSSFNNGQLAPGITMTEIDRIAQNIIKSHLETCQYTMEELHQLAWQTHTYEEIKAYQSKSREALWQQCAIQITHAIQYVVEFAKRITGFMELCQNDQILLLKSGCLEVVLVRMCRAFNPLNNTVLFEGKYGGMQMFKALGSDDLVNEAFDFAKNLCSLQLTEEEIALFSSAVLISPDRAWLIEPRKVQKLQEKIYFALQHVIQKNHLDDETLAKLIAKIPTITAVCNLHGEKLQVFKQSHPEIVNTLFPPLYKELFNPDCATGCK

Columns and labels:
[1] = system: hMyoD promoter; experiment: NHR-promoter luciferase screen, hMyoD promoter; type: cell-based, human; details: for Luc. act., normalized to lacZ / Normalized Luc. act., normalized to control: MyoD promoter reporter, co-transfected HR, without or with its ligand; for Normalized Luc. act., normalized to control: relative to control; for luciferase activity normalized to lacZ activity and to a control, hMyoD: hMyoD promoter-luciferase, CV-1 cells, NHR +/- ligand, control = 1.00
Summary of the method: (§1)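 CV-1 cells were co-transfected with 50 ng NHR (homodimer or NHR/RXR heterodimer), 100 ng promoter-luciferase construct and 50 ng LacZ. Luciferase was normalized to LacZ and to a no-NHR/no-ligand control.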

[2] = system: mPer1 promoter; experiment: NHR-promoter luciferase screen, mPer1 promoter; type: cell-based, mouse; details: for Luc. act., normalized to lacZ / Normalized Luc. act., normalized to control: Per1 promoter reporter, co-transfected HR, with or without its ligand; for Normalized Luc. act., normalized to control: relative to control; for luciferase activity normalized to lacZ activity and to a control, mPer1: mPer1 promoter-luciferase, CV-1 cells, NHR +/- ligand, control = 1.00
Summary of the method: as §1

[3] = system: mAgrp promoter; experiment: NHR-promoter luciferase screen, mAgrp promoter; type: cell-based, mouse; details: for Results of assays of transcription factor (+/- ligand) with mAgrp: Table 6d, luciferase activity relative to control (control = 1.00); for Luc. act., normalized to lacZ / Normalized Luc. act., normalized to control: mAgrp promoter, HR component with or without ligand; for Normalized Luc. act., normalized to control: relative to control
Summary of the method: as §1

[4] = system: mAdiponectin promoter; experiment: NHR-promoter luciferase screen, mAdiponectin promoter; type: cell-based, mouse; details: for Luc. act., normalized to lacZ / Normalized Luc. act., normalized to control: Adiponectin, HR component without or with its ligand; for mAdiponectin promoter reporter activity: transcription factor +/- ligand, control = 1.00
Summary of the method: as §1

[5] = system: mDio1 promoter; experiment: NHR-promoter luciferase screen, mDio1 promoter; type: cell-based, mouse; details: for Luc. act., normalized to lacZ / Normalized Luc. act., normalized to control: Dio1, HR component without or with its ligand; for mDio1 promoter reporter activity: transcription factor +/- ligand, control = 1.00
Summary of the method: as §1

[6] = system: Bmal1 promoter; experiment: NHR-promoter luciferase screen, Bmal1 promoter; type: cell-based, mouse; details: for Luc. act., normalized to lacZ / Normalized Luc. act., normalized to control: Bmal1 promoter, HR component without or with ligand; for mBmal1 promoter reporter activity: transcription factor +/- ligand, control = 1.00
Summary of the method: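 CV-1 cells co-transfected with 50 ng NHR (V5H6-tagged, pcDNA3.1; homodimer or RXR heterodimer), 100 ng Bmal1 promoter-luciferase and 50 ng LacZ. Luciferase was normalized to LacZ and to a no-NHR/ligand control.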

Molecule | Luc. act., normalized to lacZ [1] | Normalized Luc. act., normalized to control [1] | luciferase activity normalized to lacZ activity and to a control, hMyoD [1] | Luc. act., normalized to lacZ [2] | Normalized Luc. act., normalized to control [2] | luciferase activity normalized to lacZ activity and to a control, mPer1 [2] | Results of assays of transcription factor (+/- ligand) with mAgrp [3] | Luc. act., normalized to lacZ [3] | Normalized Luc. act., normalized to control [3] | Luc. act., normalized to lacZ [4] | Normalized Luc. act., normalized to control [4] | mAdiponectin promoter reporter activity [4] | Luc. act., normalized to lacZ [5] | Normalized Luc. act., normalized to control [5] | mDio1 promoter reporter activity [5] | Luc. act., normalized to lacZ [6] | Normalized Luc. act., normalized to control [6] | mBmal1 promoter reporter activity [6]
B1 | 54.3 | 0.9 | 0.86 | 50.5 | 0.4 | 0.35 | 1.30 | 51.6 | 1.3 | 71.8 | 1.1 | 1.14 | 4.4 | 1.0 | 0.99 | 12.5 | 0.8 | 0.80
B2 | 51.2 | 0.8 | 0.81 | 86.6 | 0.6 | 0.60 | 1.06 | 42.2 | 1.1 | 46.8 | 0.7 | 0.74 | 4.5 | 1.0 | 1.01 | 16.4 | 1.1 | 1.05
B3 | 67.6 | 1.1 | 1.07 | 94.5 | 0.7 | 0.66 | 1.30 | 51.5 | 1.3 | 69.4 | 1.1 | 1.10 | 6.6 | 1.5 | 1.48 | 12.7 | 0.8 | 0.81
B4 | 50.6 | 0.8 | 0.80 | 186.7 | 1.3 | 1.30 | 1.51 | 60.0 | 1.5 | 97.1 | 1.5 | 1.55 | 11.3 | 2.5 | 2.52 | 31.2 | 2.0 | 2.00
B5 | 73.9 | 1.2 | 1.17 | 112.0 | 0.8 | 0.78 | 1.37 | 54.3 | 1.4 | 82.7 | 1.3 | 1.32 | 6.4 | 1.4 | 1.44 | 16.5 | 1.1 | 1.06
